The results in this text go back to patent publication US20190255154.

The series deals with T1, acyl ghrelin (active hormone) in mouse blood, Q9EQX0.
T1 chain: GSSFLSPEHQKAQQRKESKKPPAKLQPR

B1: native mouse BChE (wild-type mouse butyrylcholinesterase), expressed in mice from an AAV-8 vector (protein)
chain: EEDFIITTKTGRVRGLSMPVLGGTVTAFLGIPYAQPPLGSLRFKKPQPLNKWPDIHNATQYANSCYQNIDQAFPGFQGSEMWNPNTNLSEDCLYLNVWIPVPKPKNATVMVWIYGGGFQTGTSSLPVYDGKFLARVERVIVVSMNYRVGALGFLAFPGNPDAPGNMGLFDQQLALQWVQRNIAAFGGNPKSITIFGESAGAASVSLHLLCPQSYPLFTRAILESGSSNAPWAVKHPEEARNRTLTLAKFTGCSKENEMEMIKCLRSKDPQEILRNERFVLPSDSILSINFGPTVDGDFLTDMPHTLLQLGKVKKAQILVGVNKDEGTAFLVYGAPGFSKDNDSLITRKEFQEGLNMYFPGVSRLGKEAVLFYYVDWLGEQSPEVYRDALDDVIGDYNIICPALEFTKKFAELENNAFFYFFEHRSSKLPWPEWMGVMHGYEIEFVFGLPLGRRVNYTRAEEIFSRSIMKTWANFAKYGHPNGTQGNSTMWPVFTSTEQKYLTLNTEKSKIYSKLRAPQCQFWRLFFPKVLEMTGDIDETEQEWKAGFHRWSNYMMDWQNQFNDYTSKKESCTAL
B1: the “ratio of desacyl ghrelin (inactive peptide) over the active hormone in mouse blood, ghrelin ELISA, after AAV-BChE gene transfer (HCT116 colon cancer model)” value was 2-fold rise and the “ratio of desacyl ghrelin (inactive peptide) over the active hormone in mouse blood, ghrelin ELISA, after AAV-BChE gene transfer (triple negative PDX model)” value was 2-fold rise.
